Measurements published in patent publication US20220110942A1 (SAINT LOUIS UNIVERSITY, published 2022).
Ends that are not written are not given here. fluorescein = fluorescein tag at the N-terminus

B1: NCoR ID1 corepressor peptide, N-terminus fluorescein-tagged (peptide)
peptide: fluorescein-RTHLITLADHICQIITQDFARN
notes: Bought from ThermoFisher Scientific; 500 nM in the FP assay; also called NCoR box 1
B2: Human GCNF (NR6A1) ligand binding domain (LBD), residues 248-480, hexahistidine-tagged (receptor, UniProt Q15406 248-480, looked up)
chain: PQSYSLIHQLLSAEDLEPLGTPMLIEDGYAVTQAELFALLCRLADELLFRQIAWIKKLPFFCELSIKDYTCLLSSTWQELILLSSLTVYSKQIFGELADVTAKYSPSDEELHRFSDEGMEVIERLIYLYHKFHQLKVSNEEYACMKAINFLNQDIRGLTSASQLEQLNKRYWYICQDFTEYKYTHQPNRFPDLMMCLPEIRYIAGKMVNVPLEQLPLLFKVVLHSCKTSVGKE
notes: range 248-480; Expressed in E. coli as a 263-amino acid hexahistidine-tagged construct (30.4 kDa); about 60 kDa homodimer by analytical size exclusion; The tag is placed first as a guess; also called GCNF LBD; wild-type GCNF; not shown: 3C protease-cleavable hexahistidine tag from pET45b(+)
B3: NCoR ID2 corepressor peptide, N-terminus fluorescein-tagged (peptide)
peptide: fluorescein-DPASNLGLEDIIRKALMGSFDDK
notes: Bought from ThermoFisher Scientific; 500 nM in the FP assay; also called NCoR box 2
B4: SMRT ID1 corepressor peptide, N-terminus fluorescein-tagged (peptide)
peptide: fluorescein-GHQRVVTLAQHISEVITQDYTRH
notes: Bought from ThermoFisher Scientific; 500 nM in the FP assay; also called SMRT box 1

How the values were obtained:
[1] = molecular target: B2; assay: fluorescence polarization, 500 nM fluorescein-tagged peptide, GCNF LBD titrated 0-70 µM
Description: GCNF protein binds directly to DR0 sites or direct repeats of AGGTCA with no spacing between half sites in the promoters of both the Oct4 and Nanog genes and is thought to repress target genes via interactions with corepressors SMRT and NCoR (Furhmann et al., 2001; Gu et al., 2005; Yan et al., 2000). To determine whether ligand binding can affect the interaction between GCNF and its associated corepressor proteins SMRT and NCoR, a fluorescence polarization assay was performed to monitor the ability of ligands to affect corepressor peptide recruitment to the GCNF LBD. Since GCNF LBD was predicted to interact with transcriptional corepressors NCoR and SMRT via its N-terminal portion (Furhmann et al., 2001; Yan et al., 1997; Yan et al., 2000), an FP assay was initially performed consisting of different fluorescein-tagged peptides derived from these corepressors. […] Meanwhile, titrating 34, but not ligand 80, increased the recruitment of SMRT ID2, the tighter binding corepressor peptide (FIG. 4C). […]
(§1) FP Assay. Fluorescence polarization (FP) assays were performed in triplicate on a 384-well Corning 3820 black opaque plate using a Biotek Synergy Neo2 HTS multimode microplate reader at excitation and emission wavelengths of 485 nm and 538 nm, respectively. Data were analyzed and plotted using GraphPad Prism as mean±SEM.

[2] = molecular target: the molecule itself; assay: analytical size exclusion chromatography with SDS-PAGE of the pooled fractions
[3] = molecular target: B2; assay: fluorescence polarization, 500 nM fluorescein-tagged peptide, GCNF LBD titrated
Description: as §1
For the corepressor peptide FP binding assay, 70.0, 35.0, 17.5, 8.8, 4.4, 2.2, 1.1, 0.55, 0.27, 0.14, and 0 μM of GCNF LBD was mixed with 500 nM N-terminus fluorescein-tagged corepressor peptides NCoR ID1 ([…] (SEQ ID NO: 1)), NCoR ID2 ([…] (SEQ ID NO: 2)), SMRT ID1 ([…] (SEQ ID NO: 3)), or SMRT ID2 ([…] (SEQ ID NO: 4)) (ThermoFisher Scientific) in assay buffer containing 50 mM HEPES (pH 7.5), 50 mM KCl, 5 mM TCEP, 0.5 mM EDTA and 0.005% Tween20. The relative polarization was plotted against the GCNF LBD concentration and fitted via nonlinear regression (one site specific binding with Hill slope) to extract KD.

Binder	binding result [3]	also measured
B1		Kd [1]: 32 µM
B2		binding result [2]: binds
B3	no binding (tested: GCNF LBD up to 70.0 µM)	
B4	no binding (tested: GCNF LBD up to 70.0 µM)	
